In article PMC11672308:

B1: GLUT1: N45D (protein)
parent chain: MEPSSKKLTGRLMLAVGGAVLGSLQFGYNTGVINAPQKVIEEFYNQTWVHRYGESILPTTLTTLWSLSVAIFSVGGMIGSFSVGLFVNRFGRRNSMLMMNLLAFVSAVLMGFSKLGKSFEMLILGRFIIGVYCGLTTGFVPMYVGEVSPTALRGALGTLHQLGIVVGILIAQVFGLDSIMGNKDLWPLLLSIIFIPALLQCIVLPFCPESPRFLLINRNEENRAKSVLKKLRGTADVTHDLQEMKEESRQMMREKKVTILELFRSPAYRQPILIAVVLQLSQQLSGINAVFYYSTSIFEKAGVQQPVYATIGSGIVNTAFTVVSLFVVERAGRRTLHLIGLAGMAGCAILMTIALALLEQLPWMSYLSIVAIFGFVAFFEVGPGPIPWFIVAELFSQGPRPAAIAVAGFSNWTSNFIVGMCFQYVEQLCGPYVFIIFTVLLVLFFIFTYFKVPETKGRTFDEIASGFRQGGASQSDKTPEELFHPLGADSQV
B2: GLUT1: MGAT4A knockdown (protein)
parent chain: B1 parent chain

Assays:
IF staining, 293T = conditions: glycan lost; control: GLUT1-WT
[1] = IF co-staining, Ishikawa cells; conditions: glycan changed form; control: shC with GAL9 overexpression

Protein | localisation_or_trafficking (IF staining, 293T) | localisation_or_trafficking [1]
B1 | decreases | –
B2 | – | decreases
